In one experiment the target is POC1. Nature of the experiment: SAXS; each POC alone, 50 μM; oligomeric state from the total scattering.
In the next experiment the target is POC1+POC2+POC3 assembly. Briefly: SAXS; POC1+POC2+POC3 (1:1:1) at 50 μM; beamline B21, Diamond Light Source.
In another experiment the target is POC2. Briefly: SAXS; each POC alone, 50 μM; oligomeric state from the total scattering.
A further experiment deals with POC3. Described as above.

Turning to POC1, the stoichiometry N (as a rule, a count of units in the complex or per binding partner) in the experiment with POC1 came to 2. POC1+POC2+POC3 assembly (complex) had a stoichiometry N with POC1+POC2+POC3 assembly of 2. POC2 came in with a stoichiometry N in the experiment with POC2 of 3. In the experiment with POC3, POC3 displayed a stoichiometry N of 3.

These data come from PMC4974474.
